From publication doi:10.1101/421420

How the values were obtained:
[1] = molecular target: PmScsCΔLinker (Proteus mirabilis); experiment: crystal structure
[2] = molecular target: PmScsCΔLinker (Proteus mirabilis); experiment: SAXS
[3] = molecular target: Proteus mirabilis suppressor of copper sensitivity protein C (PmScsC) (Proteus mirabilis); experiment: SAXS

Substance	stoichiometry N [1]	Kd [2] [µM]	percent dimer at 0.1 mg/mL [2] [%]	percent dimer at 10 mg/ml [2] [%]	percent monomer at 0.1 mg/mL [2] [%]	percent monomer at 10 mg/ml [2] [%]	percent trimer at 10 mg/ml [2] [%]	percent present as monomer at 0.1 mg/mL [3] [%]	stoichiometry N [3]
PmScsCΔLinker (enzyme)	3	200	3	48	97	40	12	–	–
Proteus mirabilis suppressor of copper sensitivity protein C (PmScsC) (enzyme)	–	–	–	–	–	–	–	1	3
